Experimental data as given in patent publication US20040110161.

What was measured:
[1] = biological target: T1, MutS (Cy5-labeled) (Escherichia coli) (UniProt P23909); settings: mung bean nuclease and SSB treated hydrogel chip
T1 sequence: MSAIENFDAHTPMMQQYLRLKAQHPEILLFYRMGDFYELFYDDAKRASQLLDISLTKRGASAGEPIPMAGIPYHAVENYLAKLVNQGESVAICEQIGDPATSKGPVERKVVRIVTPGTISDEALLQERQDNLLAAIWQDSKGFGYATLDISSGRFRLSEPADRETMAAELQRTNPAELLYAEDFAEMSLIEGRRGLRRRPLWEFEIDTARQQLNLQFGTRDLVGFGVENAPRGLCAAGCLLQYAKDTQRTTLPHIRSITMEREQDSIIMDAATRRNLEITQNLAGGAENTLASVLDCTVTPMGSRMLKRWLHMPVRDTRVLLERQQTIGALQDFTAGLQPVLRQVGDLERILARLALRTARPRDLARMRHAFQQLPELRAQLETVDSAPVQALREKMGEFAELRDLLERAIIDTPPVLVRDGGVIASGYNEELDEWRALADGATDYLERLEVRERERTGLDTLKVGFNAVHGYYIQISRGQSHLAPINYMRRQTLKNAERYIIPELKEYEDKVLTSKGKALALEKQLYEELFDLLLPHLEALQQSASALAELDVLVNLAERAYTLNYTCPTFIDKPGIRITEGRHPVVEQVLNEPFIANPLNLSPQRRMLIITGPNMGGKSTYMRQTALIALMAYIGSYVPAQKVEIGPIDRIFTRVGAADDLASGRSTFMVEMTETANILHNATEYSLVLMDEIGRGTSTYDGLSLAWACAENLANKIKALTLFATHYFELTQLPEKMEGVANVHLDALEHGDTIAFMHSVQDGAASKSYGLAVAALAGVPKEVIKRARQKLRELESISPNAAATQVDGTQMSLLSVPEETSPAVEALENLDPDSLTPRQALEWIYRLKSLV

[2] = biological target: T2, MBP-MutS fusion (Cy5-labeled) (Escherichia coli) (UniProt P23909); settings: with nuclease and SSB
T2 sequence: T1 sequence

Question: With “AGTGGTAATCTACTGGGACGGAACAGCTTTGAGGTGCGTGTTTGTGCCTGTCCTGGGAGAGACCGGCGCACAG (double strand) [cExon8/SW-480 PCR product]” as the sequence, how does the binding signal (fluorescence units) [1] read?
Answer: 461

Question: What about the binding signal (fluorescence units) [2] of the same sequence?
Answer: 168
